B1: IL-18 polypeptide SEQ ID NO: 56 (E6K, K53A, C38S, C76S, C127S) (ligand)
chain: YFGKLKSKLSVIRNLNDQVLFIDQGNRPLFEDMTDSDSRDNAPRTIFIISMYADSQPRGMAVTISVKCEKISTLSSENKIISFKEMNPPDNIKDTKSDIIFFQRSVPGHDNKMQFESSSYEGYFLASEKERDLFKLILKKEDELGDRSIMFTVQNED
B2: C174 (K8L, E6K, V11I, C38A, K53A, T63A, C76A, C127A) (ligand)
chain: YFGKLKSLLSIIRNLNDQVLFIDQGNRPLFEDMTDSDARDNAPRTIFIISMYADSQPRGMAVAISVKCEKISTLSAENKIISFKEMNPPDNIKDTKSDIIFFQRSVPGHDNKMQFESSSYEGYFLAAEKERDLFKLILKKEDELGDRSIMFTVQNED
B3: C176 (E6K, V11I, C38A, I49M, K53A, T63A, C76A, C127A) (ligand)
chain: YFGKLKSKLSIIRNLNDQVLFIDQGNRPLFEDMTDSDARDNAPRTIFIMSMYADSQPRGMAVAISVKCEKISTLSAENKIISFKEMNPPDNIKDTKSDIIFFQRSVPGHDNKMQFESSSYEGYFLAAEKERDLFKLILKKEDELGDRSIMFTVQNED
B4: C177 (E6K, V11I, C38A, I49R, K53A, T63A, C76A, C127A) (ligand)
chain: YFGKLKSKLSIIRNLNDQVLFIDQGNRPLFEDMTDSDARDNAPRTIFIRSMYADSQPRGMAVAISVKCEKISTLSAENKIISFKEMNPPDNIKDTKSDIIFFQRSVPGHDNKMQFESSSYEGYFLAAEKERDLFKLILKKEDELGDRSIMFTVQNED
B5: C178 (E6K, V11I, C38A, K53A, T63A, C76A, Q103R, C127A) (ligand)
chain: YFGKLKSKLSIIRNLNDQVLFIDQGNRPLFEDMTDSDARDNAPRTIFIISMYADSQPRGMAVAISVKCEKISTLSAENKIISFKEMNPPDNIKDTKSDIIFFRRSVPGHDNKMQFESSSYEGYFLAAEKERDLFKLILKKEDELGDRSIMFTVQNED
B6: C179 (E6K, K8E, V11I, C38A, K53A, T63A, C76A, Q103R, C127A) (ligand)
chain: YFGKLKSELSIIRNLNDQVLFIDQGNRPLFEDMTDSDARDNAPRTIFIISMYADSQPRGMAVAISVKCEKISTLSAENKIISFKEMNPPDNIKDTKSDIIFFRRSVPGHDNKMQFESSSYEGYFLAAEKERDLFKLILKKEDELGDRSIMFTVQNED
B7: C181 (E6K, V11I, C38A, K53A, T63A, C76A, C127A, V153E) (ligand)
chain: YFGKLKSKLSIIRNLNDQVLFIDQGNRPLFEDMTDSDARDNAPRTIFIISMYADSQPRGMAVAISVKCEKISTLSAENKIISFKEMNPPDNIKDTKSDIIFFQRSVPGHDNKMQFESSSYEGYFLAAEKERDLFKLILKKEDELGDRSIMFTEQNED
B8: C182 (E6K, V11I, C38A, K53A, T63A, C76A, C127A, V153Y) (ligand)
chain: YFGKLKSKLSIIRNLNDQVLFIDQGNRPLFEDMTDSDARDNAPRTIFIISMYADSQPRGMAVAISVKCEKISTLSAENKIISFKEMNPPDNIKDTKSDIIFFQRSVPGHDNKMQFESSSYEGYFLAAEKERDLFKLILKKEDELGDRSIMFTYQNED
B9: C183 (SEQ ID NO: 80; E6K, V11I, C38A, M51G, K53A, T63A, C76A, C127A) (ligand)
chain: YFGKLKSKLSIIRNLNDQVLFIDQGNRPLFEDMTDSDARDNAPRTIFIISGYADSQPRGMAVAISVKCEKISTLSAENKIISFKEMNPPDNIKDTKSDIIFFQRSVPGHDNKMQFESSSYEGYFLAAEKERDLFKLILKKEDELGDRSIMFTVQNED
B10: C184 (E6R, V11I, C38A, K53A, T63A, C76A, C127A) (ligand)
chain: YFGKLRSKLSIIRNLNDQVLFIDQGNRPLFEDMTDSDARDNAPRTIFIISMYADSQPRGMAVAISVKCEKISTLSAENKIISFKEMNPPDNIKDTKSDIIFFQRSVPGHDNKMQFESSSYEGYFLAAEKERDLFKLILKKEDELGDRSIMFTVQNED
B11: C140 (SEQ ID NO: 83; N-terminal 4xG, E6K, V11I, C38A, K53A, T63A, C76A, C127A) (ligand)
chain: GGGGYFGKLKSKLSIIRNLNDQVLFIDQGNRPLFEDMTDSDARDNAPRTIFIISMYADSQPRGMAVAISVKCEKISTLSAENKIISFKEMNPPDNIKDTKSDIIFFQRSVPGHDNKMQFESSSYEGYFLAAEKERDLFKLILKKEDELGDRSIMFTVQNED
B12: C141 (SEQ ID NO: 82; N-terminal G, E6K, V11I, C38A, K53A, T63A, C76A, C127A) (ligand)
chain: GYFGKLKSKLSIIRNLNDQVLFIDQGNRPLFEDMTDSDARDNAPRTIFIISMYADSQPRGMAVAISVKCEKISTLSAENKIISFKEMNPPDNIKDTKSDIIFFQRSVPGHDNKMQFESSSYEGYFLAAEKERDLFKLILKKEDELGDRSIMFTVQNED
B13: C142 (Y1M, E6K, V11I, C38A, K53A, T63A, C76A, C127A) (ligand)
chain: MFGKLKSKLSIIRNLNDQVLFIDQGNRPLFEDMTDSDARDNAPRTIFIISMYADSQPRGMAVAISVKCEKISTLSAENKIISFKEMNPPDNIKDTKSDIIFFQRSVPGHDNKMQFESSSYEGYFLAAEKERDLFKLILKKEDELGDRSIMFTVQNED
B14: C192 (SEQ ID NO: 81; N-terminal G, E6K, V11I, C38A, M51G, K53A, T63A, C76A, C127A) (ligand)
chain: GYFGKLKSKLSIIRNLNDQVLFIDQGNRPLFEDMTDSDARDNAPRTIFIISGYADSQPRGMAVAISVKCEKISTLSAENKIISFKEMNPPDNIKDTKSDIIFFQRSVPGHDNKMQFESSSYEGYFLAAEKERDLFKLILKKEDELGDRSIMFTVQNED
B15: IL-18 polypeptide SEQ ID NO: 43 (E06K, K53A, S55A, Y01G) (ligand)
chain: GFGKLKSKLSVIRNLNDQVLFIDQGNRPLFEDMTDSDCRDNAPRTIFIISMYADAQPRGMAVTISVKCEKISTLSCENKIISFKEMNPPDNIKDTKSDIIFFQRSVPGHDNKMQFESSSYEGYFLACEKERDLFKLILKKEDELGDRSIMFTVQNED
B16: IL-18 polypeptide SEQ ID NO: 44 (E06K, K53A, S55A, F02A) (ligand)
chain: YAGKLKSKLSVIRNLNDQVLFIDQGNRPLFEDMTDSDCRDNAPRTIFIISMYADAQPRGMAVTISVKCEKISTLSCENKIISFKEMNPPDNIKDTKSDIIFFQRSVPGHDNKMQFESSSYEGYFLACEKERDLFKLILKKEDELGDRSIMFTVQNED
B17: IL-18 polypeptide SEQ ID NO: 45 (E06K, K53A, S55A, D54A) (ligand)
chain: YFGKLKSKLSVIRNLNDQVLFIDQGNRPLFEDMTDSDCRDNAPRTIFIISMYAAAQPRGMAVTISVKCEKISTLSCENKIISFKEMNPPDNIKDTKSDIIFFQRSVPGHDNKMQFESSSYEGYFLACEKERDLFKLILKKEDELGDRSIMFTVQNED
B18: IL-18 polypeptide SEQ ID NO: 46 (E06K, K53A, S55A, M51G) (ligand)
chain: YFGKLKSKLSVIRNLNDQVLFIDQGNRPLFEDMTDSDCRDNAPRTIFIISGYADAQPRGMAVTISVKCEKISTLSCENKIISFKEMNPPDNIKDTKSDIIFFQRSVPGHDNKMQFESSSYEGYFLACEKERDLFKLILKKEDELGDRSIMFTVQNED
B19: IL-18 polypeptide SEQ ID NO: 47 (C38S, C68S, C76S, C127S) (ligand)
chain: YFGKLESKLSVIRNLNDQVLFIDQGNRPLFEDMTDSDSRDNAPRTIFIISMYKDSQPRGMAVTISVKSEKISTLSSENKIISFKEMNPPDNIKDTKSDIIFFQRSVPGHDNKMQFESSSYEGYFLASEKERDLFKLILKKEDELGDRSIMFTVQNED
B20: IL-18 polypeptide SEQ ID NO: 48 (C38S, C68S, C76S, C127S, K70C) (ligand)
chain: YFGKLESKLSVIRNLNDQVLFIDQGNRPLFEDMTDSDSRDNAPRTIFIISMYKDSQPRGMAVTISVKSECISTLSSENKIISFKEMNPPDNIKDTKSDIIFFQRSVPGHDNKMQFESSSYEGYFLASEKERDLFKLILKKEDELGDRSIMFTVQNED
B21: IL-18 polypeptide SEQ ID NO: 49 (E06K, K53A, S55A, C38S, C68S, C76S, C127S, K70C) (ligand)
chain: YFGKLKSKLSVIRNLNDQVLFIDQGNRPLFEDMTDSDSRDNAPRTIFIISMYADAQPRGMAVTISVKSECISTLSSENKIISFKEMNPPDNIKDTKSDIIFFQRSVPGHDNKMQFESSSYEGYFLASEKERDLFKLILKKEDELGDRSIMFTVQNED
B22: IL-18 polypeptide SEQ ID NO: 55 (K53A, T63A, C38S, C68S, C76S, C127S, K70C) (ligand)
chain: YFGKLESKLSVIRNLNDQVLFIDQGNRPLFEDMTDSDSRDNAPRTIFIISMYADSQPRGMAVAISVKSECISTLSSENKIISFKEMNPPDNIKDTKSDIIFFQRSVPGHDNKMQFESSSYEGYFLASEKERDLFKLILKKEDELGDRSIMFTVQNED
B23: IL-18 polypeptide SEQ ID NO: 6 (E6K, V11I, C38A, K53A, T63A, C68A, C76A, D98C, C127A) (ligand)
chain: YFGKLKSKLSIIRNLNDQVLFIDQGNRPLFEDMTDSDARDNAPRTIFIISMYADSQPRGMAVAISVKAEKISTLSAENKIISFKEMNPPDNIKDTKSCIIFFQRSVPGHDNKMQFESSSYEGYFLAAEKERDLFKLILKKEDELGDRSIMFTVQNED

Target: T1, IL-18 receptor (IL-18Rαβ) on cells (UniProt Q13478 19-541; O95256 20-599, limits assumed)
T1 sequence (looked up) 1: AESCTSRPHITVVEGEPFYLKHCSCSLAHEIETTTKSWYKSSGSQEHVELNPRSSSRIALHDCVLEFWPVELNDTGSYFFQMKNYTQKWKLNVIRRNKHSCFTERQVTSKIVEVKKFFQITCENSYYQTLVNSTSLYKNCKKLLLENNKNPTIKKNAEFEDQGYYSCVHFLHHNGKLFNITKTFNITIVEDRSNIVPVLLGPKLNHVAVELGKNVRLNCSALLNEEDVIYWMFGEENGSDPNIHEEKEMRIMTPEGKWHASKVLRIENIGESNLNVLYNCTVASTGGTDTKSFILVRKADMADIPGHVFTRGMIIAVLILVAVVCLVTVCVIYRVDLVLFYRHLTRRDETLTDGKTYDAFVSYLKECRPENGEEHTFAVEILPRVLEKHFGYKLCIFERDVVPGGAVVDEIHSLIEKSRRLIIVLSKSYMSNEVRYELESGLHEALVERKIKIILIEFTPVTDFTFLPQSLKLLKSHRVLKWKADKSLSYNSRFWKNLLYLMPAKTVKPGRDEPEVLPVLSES
T1 sequence (looked up) 2: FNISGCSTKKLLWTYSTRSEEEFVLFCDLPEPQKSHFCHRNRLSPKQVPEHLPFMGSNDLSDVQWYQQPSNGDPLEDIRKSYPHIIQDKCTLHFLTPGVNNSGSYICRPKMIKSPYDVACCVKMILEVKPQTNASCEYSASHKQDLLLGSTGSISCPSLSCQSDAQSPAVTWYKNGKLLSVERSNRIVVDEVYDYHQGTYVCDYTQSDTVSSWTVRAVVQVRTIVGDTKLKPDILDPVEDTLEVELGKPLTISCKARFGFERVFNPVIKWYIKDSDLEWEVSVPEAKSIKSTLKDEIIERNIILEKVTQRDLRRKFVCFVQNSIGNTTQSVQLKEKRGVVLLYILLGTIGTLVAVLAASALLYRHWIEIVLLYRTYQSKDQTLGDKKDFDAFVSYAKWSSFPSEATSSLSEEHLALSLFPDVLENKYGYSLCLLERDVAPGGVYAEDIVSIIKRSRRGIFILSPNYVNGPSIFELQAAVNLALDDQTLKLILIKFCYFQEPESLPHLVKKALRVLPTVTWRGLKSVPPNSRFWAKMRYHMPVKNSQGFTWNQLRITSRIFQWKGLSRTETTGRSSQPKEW
Test: cell-based or functional assay

Binder | EC50 (pM), HEK-Blue IL-18R reporter assay [pM]
B1 | 3.73
B2 | 0.29
B3 | 0.07
B4 | 0.04
B5 | 0.26
B6 | 0.4
B7 | 0.1
B8 | 0.08
B9 | 0.1
B10 | 0.04
B11 | 2.5
B12 | 1.68
B13 | 0.02
B14 | 14

Target: T1, IL-18 receptor (IL-18Rαβ) on cells
Test: cell-based or functional assay
Remark: another data set of the same source

Binder | EC50 (nM), IFNγ induction, NK-92 cells [nM]
B15 | 6.12
B16 | > 1000
B17 | 30
B18 | 7.4
B19 | 0.115
B20 | 0.488
B21 | 58.5
B22 | 17.2
B23 | 1.37

— patent US20240116997A1 (BRIGHT PEAK THERAPEUTICS, published 2024)
